{"source": "paper PMC8175468", "about": "“3D architecture and structural flexibility revealed in the subfamily of large glutamate dehydrogenases by a mycobacterial enzyme” (Communications Biology, 2021)", "proteins": {"B1": {"name": "Se-Met mL-GDH180 (seleno-methionine derivative of the mycobacterial L-GDH180 from Mycobacterium smegmatis MC2-155) (enzyme, UniProt A0R1C2 1-1594, looked up)", "chain": "MIRRLSVAFLSTYRGPQADAPGVTSTGPLAVAAHDDLVSDDLVAAHYRLASMRAPGETKAAVYPGDAGSGAALQIVTDQAPMLVDSVTVLLHRHGIAYTAIMNPVFRVRRGLDGELLDVRPAAEAAPGDGADECWILVPITAAADGEALTEATRLVPGILAEARQIGLDSGAMIAALHGLANDLATDLEGHFPNAERKEVAALLRWLADGHFVLLGYQQCVVGDGNAEVDPASRLGVLRLRNDVLPPLTDSDDLLVLAQATMPSYLRYGAYPYIVVVRESPGASRVIEHRFVGLFTVAAMNANALEIPLISRRVEEALAMAHRDPSHPGQLLRDIIQTIPRPELFALSSKQLLEMALAVVDLGSRRRTLLFLRADHLAHFVSCLVYLPRDRYTTAVRLEMQDILVRELGGAGIDYSARVSESPWAVVHFTVRLPEGTAADSVDTSLENESRIQDLLTEATRNWGDRMISAAAAASISPAALEHYAHAFPEDYKQAFAPQDAIADISLIEALQDDSVKLVLADTAEDRVWKLTWYLGGHSASLSELLPMLQSMGVVVLEERPFTLRRTDGLPVWIYQFKISPHPSIPHAPDAEAQRDTAQRFADAVTAIWHGRVEIDRFNELVMRAGLTWQQVVVLRAYAKYLRQAGFPYSQSHIESVLNENPHTTRSLIDLFEALFDPSQETDGRRDAQGAAAAVAADIDALVSLDTDRVLRAFANLIEATLRTNYFVARPDSARARNVLAFKLNPLVIKELPLPRPKFEIFVYSPRVEGVHLRFGFVARGGLRWSDRREDFRTEILGLVKAQAVKNAVIVPVGAKGGFVVKRPPTLTGDAAADREATRAEGVECYRLFISGLLDVTDNVDKATGAVVTPPEVVRRDGEDAYLVVAADKGTATFSDIANEVAKSYGFWLGDAFASGGSIGYDHKAMGITAKGAWESVKRHFREMGVDTQTQDFTVVGIGDMSGDVFGNGMLLSKHIRLVAAFDHRDIFLDPNPDAGRSWDERKRLFDLPRSSWADYDKSLISEGGGVYSRQQKSIPISPQVRTALGLDADVEELTPPALIKAILKAPVDLLWNGGIGTYIKAETEADADVGDRANDQIRVCGNQVRAKVIGEGGNLGVTALGRIEFDLAGGRINTDALDNSAGVDCSDHEVNIKILIDSAVTAGKVTPEERTELLLSMTDEVGELVLADNRDQNDLMGTSRANAASLLSVHARMIKDLVDNRGLNRELEALPSEKEIRRRADAGIGLTSPELATLMAHVKLALKDDVLASDLPDQEVFASRLPYYFPTRLREELHGEIRSHQLRREIITTMLVNDLVDTAGISYAYRITEDVGVGPVDAVRSYVAINAIFGIGDVWRRIRAAGDAGVPTSVTDRMTLDLRRLVDRAGRWLLNYRPQPLAVGAEINRFGAKVAALTPRMSEWLRGDDKAIVSKEAGDFASHGVPEDLAYHIATGLYQYSLLDVIDIADIVDREPDEVADTYFALMDHLGADALLTAVSRLSRDDRWHSLARLAIRDDIYGSLRALCFDVLAVGEPDENGEEKIAEWETTNSSRVTRARRTLTEIYKDGEQDLATLSVAARQIRSMTRTSGTGTTG", "modifications": "seleno-methionine in place of methionine", "notes": "No cleavage of the His6 tag is described; Crystallised from a solution that also held an equimolar amount of GarA from M. tuberculosis, which was not found in the crystal; also called seleno-methionine (Se-Met) derivative of mL-GDH180"}, "B2": {"name": "native mL-GDH180 (mycobacterial large glutamate dehydrogenase of 180 kDa subunits from Mycobacterium smegmatis MC2-155) (enzyme, UniProt A0R1C2 1-1594, looked up)", "chain": "B1 chain", "notes": "NAD-dependent large glutamate dehydrogenase (L-GDH180), Mycobacterium smegmatis MC2-155, MSMEG_4699, Uniprot A0R1C2; No cleavage of the His6 tag is described; Only residues 500-1588 are modelled in the cryo-EM coordinates (7A1D); also called L-GDH180 from M. smegmatis; MSMEG_4699; source: E. coli BL21(DE3) grown in LB broth, purified (HisTrap HP, Superose 6 size-exclusion chromatography)"}}, "key": {"[1]": {"molecular_target": "the molecule itself", "assay": "crystal structure; Se-Met mL-GDH180 at 16.5 mg/ml with equimolar GarA; 100 mM sodium cacodylate pH 5.8, 12% v/v glycerol, 1.25 M (NH4)2SO4, 4 °C; two monomers in the asymmetric unit, tetramer by crystallographic symmetry; 6.27 Å"}, "[2]": {"molecular_target": "the molecule itself", "assay": "cryo-EM structure; 0.3 mg/ml native mL-GDH180 on Quantifoil R2/2 grids; single-particle, D2 symmetry; open (4.19 Å) and closed (6.6 Å) tetramers"}}}
{"protein": "B1", "values": [{"measurement": "stoichiometry N", "setting": "[1]", "value": 4}]}
{"protein": "B2", "values": [{"measurement": "stoichiometry N", "setting": "[2]", "value": 4}]}
